Data: patent publication US20260234206A1

What was measured:
calmodulin [1] = molecular target: calmodulin (UniProt P0DP23); assay: SPR, CaM immobilised, SXkmer A injected, BiaEvaluate fit
calmodulin [2] = molecular target: calmodulin (UniProt P0DP23); assay: microscale thermophoresis, labelled SXkmer A with free calmodulin in solution

Loop calmodulin binder SXkmer A (KMRPGVN) (designed binder)
koff (calmodulin [1]): 1e-06 s⁻¹ | Kd (calmodulin [2]): 140 nM
